Results as given in paper PMC5007808, “Structure-oriented substrate specificity engineering of aldehyde-deformylating oxygenase towards aldehydes carbon chain length” (Biotechnology for Biofuels, 2016).

How the values were obtained:
purified protein = substrate: CCCCCC=O; experiment: purified protein; settings: NADH/PMS reducing system, catalase, 80 uM ferrous ammonium sulfate, 100 mM HEPES, 100 mM KCl, pH 7.2, room temperature
[1] = substrate: CCCCCCC=O; experiment: GC headspace quantification of alkane product; type: biochemical, Synechococcus elongatus; settings: NADH/PMS reducing system, catalase, 80 uM ferrous ammonium sulfate, 100 mM HEPES, 100 mM KCl, pH 7.2, 37 °C
[2] = substrate: CCCCCCCC=O; experiment: GC headspace quantification of alkane product; type: biochemical, Synechococcus elongatus; settings: NADH/PMS reducing system, catalase, 80 uM ferrous ammonium sulfate, 100 mM HEPES, 100 mM KCl, pH 7.2, 37 °C
[3] = substrate: CCCCCCCCC=O; experiment: GC headspace quantification of alkane product; type: biochemical, Synechococcus elongatus; settings: NADH/PMS reducing system, catalase, 80 uM ferrous ammonium sulfate, 100 mM HEPES, 100 mM KCl, pH 7.2, 37 °C

| Protein | Km (purified protein) | kcat (purified protein) | kcat/Km (purified protein) | Km [1] | kcat [1] | kcat/Km [1] | Km [2] | kcat [2] | kcat/Km [2] | Km [3] | kcat [3] | kcat/Km [3] |
| --- | --- | --- | --- | --- | --- | --- | --- | --- | --- | --- | --- | --- |
| cADO-1593 (Synechococcus elongatus PCC 7942 = FACHB-805) (protein, full length, codon-optimized gene in pET-28a, His-tag (nickel column), E. coli BL21(DE3); apo enzyme reconstituted with Fe(II)) MPQLEASLELDFQSESYKDAYSRINAIVIEGEQEAFDNYNRLAEMLPDQRDELHKLAKMEQRHMKGFMACGKNLSVTPDMGFAQKFFERLHENFKAAAAEGKVVTCLLIQSLIIECFAIAAYNIYIPVADAFARKITEGVVRDEYLHRNFGEEWLKANFDASKAELEEANRQNLPLVWLMLNEVADDARELGMERESLVEDFMIAYGEALENIGFTTREIMRMSAYGLAAV | 930 ± 100 µM | 0.03 s⁻¹ | 31.7 M⁻¹ s⁻¹ | 590 ± 70 µM | 0.0132 ± 0.0005 s⁻¹ | 21.7 ± 1.67 M⁻¹ s⁻¹ | 180 ± 30 µM | 0.0233 ± 0.001 s⁻¹ | 130 ± 5 M⁻¹ s⁻¹ | 69 ± 8.7 µM | 0.0102 ± 0.000333 s⁻¹ | 150 ± 8.33 M⁻¹ s⁻¹ |
| cADO-1593 (Synechococcus elongatus PCC 7942 = FACHB-805; A121F) (protein, full length, codon-optimized gene in pET-28a, His-tag (nickel column), E. coli BL21(DE3); apo enzyme reconstituted with Fe(II)) MPQLEASLELDFQSESYKDAYSRINAIVIEGEQEAFDNYNRLAEMLPDQRDELHKLAKMEQRHMKGFMACGKNLSVTPDMGFAQKFFERLHENFKAAAAEGKVVTCLLIQSLIIECFAIAFYNIYIPVADAFARKITEGVVRDEYLHRNFGEEWLKANFDASKAELEEANRQNLPLVWLMLNEVADDARELGMERESLVEDFMIAYGEALENIGFTTREIMRMSAYGLAAV | 960 ± 50 µM | 0.115 s⁻¹ | 120 M⁻¹ s⁻¹ | 560 ± 60 µM | 0.025 ± 0.00167 s⁻¹ | 45 ± 3.33 M⁻¹ s⁻¹ | 180 ± 36 µM | 0.0163 ± 0.001 s⁻¹ | 90 ± 5 M⁻¹ s⁻¹ | 140 ± 22 µM | 0.0128 ± 0.000667 s⁻¹ | 90 ± 5 M⁻¹ s⁻¹ |
